Measured values from the domain aggregation screens of Martell et al. (2025).

test: soluble fraction after stress (log2 fold change); higher = more stays soluble; pooled small domains, quantitative proteomics; settings: stress: pH 4
Summary of the method: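 Aggregation propensity here comes from the fold change in the soluble amount of each small protein domain after acid stress, measured in pooled custom libraries by high-throughput quantitative proteomics. The acid stress was pH 4. On the log2 scale, higher values mean more of the domain stayed soluble.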

First: HMGTAEDYLLPRRAEILSIIRDHEFANFDLIRRRFLAVNERTLRYDLKKLSDLGLIKKLGKTRGVYYRAAK
Second: HMGTAVKAPMPGTILKVNVTAGQSVKAGDIMFILEAMKMENEIVAPSDGTVSQVVAAKGSSVATDDVLAYL
The “soluble fraction (log2)” value of the first is higher: ≥ 0.43 for the first, -0.0993 for the second.

“HMGTDGLKDIVLEILKEHPNQLAELIDGKQKVLGFLVGQVMKKTNGAANPKEVNEIIQGEIKK” and “HMGTELSYSEFLNKVEAGEVTNVTIRGPEITFQTGNSSYTTYAPDDPKLIEHLTAKGVAIKAGP” are within 0.2 log units of each other in “soluble fraction (log2)” value: -0.433 for the first, -0.311 for the second.

Compared with “HMGTGELLVHVIGAVHSPGVVRLPTGARVVDAIDAAGGAREDAQTEQLNLARLVDDGEQVRVPVVGESVD”, “HMGTGIKQVNVVSVIGQDEETAKTTLTNLGLKVNVTYATSTSDNGKVTKQSIDAGKTVDEGTSVTITVNKV” is lower in “soluble fraction (log2)” value: 0.00081 for the first, -0.269 for the second.

Going from “HMGTHSAEQVRAAIRAIVAAEDAANPLSDARITELLAMRGIAAARRTVMKYREQLGIPSSAKRRR” to “HMGTHVVQEGEYLDLIIEKTIPGSPIRKDLLRKAFVKLNPSAFGGRGNPNYIFARKKLKVPSVEDLKAVIF”, the “soluble fraction (log2)” value falls from ≥ 0.43 to -0.36.

Compared with “HMGTIEEYSKYLINQYFDSLKKPMDAMTTSEKIEIVKSLDKKGIFNLKGSVGELAKRFNTSEKTIYRYLSS”, “HMGTKRWELPRRVQQMATQHGKSISTAAAEELVSRSGENTRMLDNDLVKLAQMVEAPQIELADVERWIVR” is higher in “soluble fraction (log2)” value: 0.00746 for the first, 0.335 for the second.

Compared with “HMGTLPSLAPSGEKTVRLPNLAGWSLRETMEILQKGGLQLLPIGSGISFKQSPPPGTTLNEGDAVTVWF”, “HMGTNTTGWIKIADDWKYIDSNGEYTVNDWRQSADGGWYYLGYNGNMLKNQTTPDGYYVDAEGLWDGMSPA” is lower in “soluble fraction (log2)” value: 0.103 for the first, -2.31 for the second.

First: HMGTPEQVVVSSVLKETNEIVLKWPADGFMAKYKMDNLNLNFEPVHGQGVMGYFIGSRLIKLELV
Second: HMGTPSAEELAFSAQKGNAVMRIMEIREKYIENGGQISDEERNEIERLIAIYYPKASIFDYLPMMG
The “soluble fraction (log2)” value of the first is higher: -0.33 for the first, -1.42 for the second.

Going from “HMGTSFEDIDRAVKSVRKPETDEAEKLHAGKTFKDIAETELFQKLTESFAGISDRVNEVIDLYTARAAE” to “HMGTSSAEIAAELRAQIFAGELRPGEMLPSAREITGTWNVAIATASRVHALLRSEGLATPVPGVGTVVAT”, the “soluble fraction (log2)” value falls from 0.143 to -0.17.

“HMGTTAWISTKTANGSVNIRTGPGTGYGVIGWALNGDKLEVLSRGTSWHYVKLVKNGKIGYVSASYVSFTQ” and “HMGTTKGVVDVTVPNGRASQHVKLVVIDDDGGRVVYDGTNAPGDRIVKSVSGSGNVRVQIYLNNALVQEQS” are within 0.2 log units of each other in “soluble fraction (log2)” value: -0.399 for the first, -0.306 for the second.

Going from “HMGTTMLEVPNFVGEVFKEIDPEKYPNLRLVDSDYTYSNEYEAGKVISQDPVARTQVAEGSTVKLVIS” to “HMGTVISVDKARSIALAKVPGASANDIRIHLDRDDGRQIYEGEIYYNRMEYEFEIDASTGTIIEWSAEHW”, the “soluble fraction (log2)” value rises from -0.249 to 0.00283.

Compared with “HMGTVQSVDRALLLLSEIGREPGGLVDLSTRVRLATSTTGRILATLEHAGAVVRGDDGIYHIGPLVHGMVS”, “HMGTYSKQDLLQLIGRYPDGIGKREINLAFSKGTKIRNLLNIELNELLNERLITLSQGGLYIKP” is higher in “soluble fraction (log2)” value: 0.0724 for the first, ≥ 0.43 for the second.

Compared with “HMGVAFAPVEKIKHTKTGNELYAVKLAGRVEAEVFGQLRQKAKEYDGYYSKFSRAFLFSTPEDAEAFRAE”, “HMGVDIAEHDGQPAVSIRKGAAESVAQWVKDQGGTFPQEVEMTVQNVARAGGTPLVVARGRDVLGVIYLKD” is lower in “soluble fraction (log2)” value: 0.276 for the first, -0.281 for the second.

Compared with “HMGVDKLTPREREVLALMAQGASNREIEGKLVLTAGAVSKHVANVFMKLGFSPEDENRRVKAVLAWLRTK”, “HMGVGIEALAVEVDRIRQVLTGGGALSDIQLFSQLKALGEVKTALSSMTDPRARELEKRVAQLLEASLRT” is lower in “soluble fraction (log2)” value: 0.225 for the first, -0.323 for the second.

First: HMGVKHKHKGAGELLAALRTMFPNSSVSTLRKMLTQGRVVLNGEVVHRAKHELTDGDTIEVLERQRAER
Second: HMGVKIELNENEQAIFAAMQKQVEAVLPDLRAQFADMSNKAWDNSVKTLTKNNLLKVSKEAEILFIRL
The “soluble fraction (log2)” value of the first is higher: 0.228 for the first, -1.09 for the second.

“HMGVKTDKYYYQMATETRVNKHYGLSNQYIATLISEYPRSPLIPNASILSKKNNADLALIDQSINQR” and “HMGVLSPRQSQILALVAQGLGNREIAERLHIAPTTARDHVQAIMRRLNVNSRAAAAVMGVKLGLI” are within 0.2 log units of each other in “soluble fraction (log2)” value: 0.155 for the first, 0.085 for the second.

“HMGVNEGVNKLFKTIQETPGKRMPYYALATDVPEKTIERWLKQLREEGKIEFKGSAKTGGYFVIDK” and “HMGVRDIRIFERNNSFFVNAEIRGEAQLSVPITRTDYQLFKENKIDALSLVEKYYAEELNASNEMK” are within 0.2 log units of each other in “soluble fraction (log2)” value: 0.22 for the first, 0.155 for the second.

Going from “HMGVSLNELAYRRFKQALVTLSYKPGEYLNTAQVMNDLDMGRTPINQAIHRLANEGLLQVIPRKGVMVS” to “HMGVTDLFAVLGFPRSPWLDAEELKQRHHALMADEASANSSPTILNEARRTLQNPALRIRHFLALEFPDH”, the “soluble fraction (log2)” value falls from 0.026 to -0.82.

Going from “HMGVYDLIYLGYGINVEKEELVDQNISIIRRYANIFDPNGDIKGSTNPTYASNTAVLFNEAKFIIDGYD” to “HMGWQPDPLTTRERLVAELATQASNAQIAEQLHLSVRTVEGHLAHVYTKLGITTRRELPAALAGAR”, the “soluble fraction (log2)” value rises from -1.79 to -2.8e-05.

Compared with “HMGWTTPAGIAVGMDKSVLQDAYGKEDDTFQDKGILYYQYFVHPSRMSGLSFGIKNDKIVSITAYMD”, “HMGYDDLEPFDANGRLRWSDQELVLAFGRHRGATLRTLELNDPSYLRWLLSGNGPLEQQDIQRLEQILES” is lower in “soluble fraction (log2)” value: -1.23 for the first, -1.44 for the second.

First: HMGYDLLFQQALGFHEQGRLNEAENIYRQILETAPNNPDILNLLGLIAQQKGLHAQAVDYFYQAIRL
Second: HMGYDVAEVKFRLIKLLRDSKIGISGVEISERLGINRVTMTKYLNIFSAEGVIGEKNIGNVNLWFVYEGIE
The “soluble fraction (log2)” value of the first is lower: -1.9 for the first, -0.186 for the second.

“HMGYQLSLEAQSQLKALGLTSEYITRILDEADNRQPIPGTSRTVYSLNGYQVEFSHSDQQVIRIARG” and “HMGYSDEIGEFIKKLRTENHLTQKEFADKYGVTYQAVSKWENGKNLPDMSLIKQMSEDFNIGIDELLDGEK” are within 0.2 log units of each other in “soluble fraction (log2)” value: -0.262 for the first, -0.454 for the second.

Compared with “HMGYTLDVAHGVTEDMNFSEAFATAREEVGPGGIFYWHGKPYGTYYENEWNAMDEEDKAEYWDAVGRTTA”, “HMHANSDVEQLMQMGIQRLNFQRYSDALLIFNQIIENFPDYAEAWNKRATLHYLLGNLDKSIADIEQTLE” is lower in “soluble fraction (log2)” value: -0.508 for the first, -1.54 for the second.

Going from “HMHAPIAELKKVFKEEFADQEVTVRQLAGSVLLSGNVKTAELRENLESVAKQFFPRVINNLKLI” to “HMHDAKAEIIRLSALLTEYQRSYYIDGHSQVSDLEYDRLFDRLVALETSHPELREADSPTQRV”, the “soluble fraction (log2)” value falls from 0.0685 to -1.14.

Compared with “HMHDAKTQLQEEAARRGLPAPVYTRIGQEGPDHAPRFRVRADVGPHQAEAVAGSLKLAQAEAARAILRQMP”, “HMHDITPAVAETFKQLRAERGLSLSQAAQLTGVSKAMLGQIERGQSSPTVSTLWKIATGFNVAFSVFL” is lower in “soluble fraction (log2)” value: 0.28 for the first, -0.309 for the second.

First: HMHDLGEQIIEKLRASGGISTLTDKSDPDAIYRQFKVSKKKYKQALGTLYKSRRITLAPNQIKLA
Second: HMHDPLATLTPREHEVMSLMAEGRTNAAIAQALVIGTGAVEKNVTSIFQKLGLDDSGTDHRRVLAVLAWLQ
The “soluble fraction (log2)” value of the first is higher: 0.22 for the first, -1.18 for the second.

Compared with “HMHDRRSGKVKWYSDRKGYGFIDLDGGEVFIHRSALIAFGALRLQAEDIITITVRETDRGLVVDQLFGIER”, “HMHEAILNQIRNEELMLYIGELSDAQQDVILLKYFHQMTFKEIAESFSIPISTVKTRHTAALKKLSTLWK” is higher in “soluble fraction (log2)” value: -1.63 for the first, 0.0907 for the second.

Compared with “HMHESLAEVAARKLRALIVTGELAPGERVTEAGLTDLLEISRTPAREAIRILSSEGLLVVFPNRGAEVV”, “HMHEYSDIEHRILDAAREVFIRKGYDSATMGDIALLAGMSRTSVNYYFRNKERLFEAIFEEII” is lower in “soluble fraction (log2)” value: -0.815 for the first, -1.25 for the second.

First: HMHFDQILAHAMDERGMNAVQLASLTGLSSGAISRYLAGDRQPTVYSIQQIAKALGVSADYLVG
Second: HMHGEAEFLDATAVVMEKLNPGGLVKIKGEIWQAVSKDGHTIQEGEKVRVFERQGITLLVGHF
The “soluble fraction (log2)” value of the first is higher: 0.22 for the first, -0.223 for the second.

Compared with “HMHGTIHSAAYGGDIEAVKKFLAAGADVNANGGGRTPLDLAIQVKNTEIADLLRKHGGKTGDELKA”, “HMHGYLSDPAARLIRARRKTLSIRITQEGNLEIRAPLGMPKGEIEAFLKEKAQWIETHRAKVLAEYA” is lower in “soluble fraction (log2)” value: 0.398 for the first, -0.138 for the second.

Going from “HMHHDQQQITAELARIARNGLPGLTADNAIISRLDALNLLINIHDDRGADATPLRGLLPAIADELLRLT” to “HMHHIDTAWFRGKMREHRLTQEAVGQAIGLERSMVSKIIKGTVSFNARKASAWAQLLRVSESEILERVGI”, the “soluble fraction (log2)” value falls from 0.0087 to -0.379.

Going from “HMHHIDYKQLRRINPVAARRAVLDYLESTGGNITKTAQVFSINRSVVYDILKKQASGDLSDRLRIP” to “HMHIDQVIRERRLALGLTQEELANKIGVSAPAVSKWEKRVSYPDITLLPALARILGTDVNTLLTFS”, the “soluble fraction (log2)” value falls from 0.249 to -0.309.

Going from “HMHIVQEGDSLYGIARQYRITVEELRSLNALETADVIVPYQKLYV” to “HMHKPLRILVYEELRMLIMTGQIKPGTRMMEIDLAESMGVSRTPVREAIRQLEKDNLVTIEPRRGAYVSD”, the “soluble fraction (log2)” value rises from -1.14 to -0.761.

Going from “HMHKYQVGETVYYTSPTFGRAAATGSYIVVKLLPSEGDDYQYRIKSSGEAFERVAKESQLDR” to “HMHLIPRESTYEIDGRRFVVDSVNLDFGKVSLQDITFRNATGFPIFRSESIEFMRRLVEISEAQRIAEL”, the “soluble fraction (log2)” value falls from 0.11 to -0.114.

Compared with “HMHLPDNAVSIISELKMTPEEVLELIGKLPHDFLFLPYSQRKKIIVDLIPNKDYKLLMSLIKKFML”, “HMHLTRYQYKVETEQEAVGLKELSSVHDLQIKENEATFQADSDAIDEILKTLLLYGVKKLEATPPTLED” is lower in “soluble fraction (log2)” value: -0.536 for the first, -1.05 for the second.
